Experimental data reported in patent WO1992001059A1.

What was measured:
[1] = molecular target: carcinoembryonic antigen (CEA) (UniProt P06731); assay: competition RIA on CEA coated beads
[2] = molecular target: carcinoembryonic antigen (CEA) (UniProt P06731); assay: competition RIA, 125I-labelled A5B7 IgG1 on CEA coated beads, purified material
[3] = molecular target: carcinoembryonic antigen (CEA) (UniProt P06731); assay: competition RIA on CEA coated beads, transfected CHO cell supernatant
[4] = molecular target: carcinoembryonic antigen (CEA) (UniProt P06731); assay: competition RIA on CEA coated beads, transfected CHO cell supernatant; apparent A5B7 concentration divided by assembly assay result

Chain of carcinoembryonic antigen (CEA) (P06731 35-685 limits assumed): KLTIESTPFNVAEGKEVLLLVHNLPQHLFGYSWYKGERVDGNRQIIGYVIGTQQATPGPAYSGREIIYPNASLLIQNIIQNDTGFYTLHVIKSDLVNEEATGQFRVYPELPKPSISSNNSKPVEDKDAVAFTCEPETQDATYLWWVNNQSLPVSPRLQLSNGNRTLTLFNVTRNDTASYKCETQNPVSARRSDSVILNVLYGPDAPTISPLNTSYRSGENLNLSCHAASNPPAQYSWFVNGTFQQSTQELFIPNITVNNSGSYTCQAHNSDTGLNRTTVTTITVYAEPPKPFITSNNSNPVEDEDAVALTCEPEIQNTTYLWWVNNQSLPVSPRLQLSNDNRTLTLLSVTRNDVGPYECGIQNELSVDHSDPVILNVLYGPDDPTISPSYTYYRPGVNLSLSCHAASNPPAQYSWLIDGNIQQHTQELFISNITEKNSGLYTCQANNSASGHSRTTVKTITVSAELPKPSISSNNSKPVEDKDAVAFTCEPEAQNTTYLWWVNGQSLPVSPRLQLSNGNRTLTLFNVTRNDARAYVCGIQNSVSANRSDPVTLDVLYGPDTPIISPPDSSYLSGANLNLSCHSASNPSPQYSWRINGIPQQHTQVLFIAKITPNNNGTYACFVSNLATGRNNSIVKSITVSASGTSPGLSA

Substance	fold reduced potency against murine A5B7 IgG [1]	% Relative Potency [2]	% Relative Potency [3]	Specific activity [4]
murine A5B7 Fab' (alkylated)	10 fold	8%		
chimeric A5B7 IgG1 whole antibody		100%	100%	1.17
murine A5B7 F(ab')2		97%		
